Laboratory results from US11357847B2, “Modified HSV gD protein and vaccine containing same” (KM Biologics Co., Ltd., priority 2017, dated 2022).
Changes are numbered by the printed parent chain.

T1: HVEM (Homo sapiens, UniProt Q92956)
T1 sequence (Q92956 39-202): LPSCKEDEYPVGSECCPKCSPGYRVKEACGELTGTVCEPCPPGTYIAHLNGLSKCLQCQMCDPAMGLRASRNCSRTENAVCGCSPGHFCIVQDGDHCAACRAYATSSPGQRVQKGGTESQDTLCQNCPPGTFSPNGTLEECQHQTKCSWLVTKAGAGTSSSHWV

B1: gD1-275v3-55: gD1-275 with glycochain at SC-F, linked to T cell epitope peptide DP5 (protein)
chain: KYALADPSLKMADPNRFRGKNLPVLDQLTDPPGVKRVYHIQPSLEDPFQNASIPITVYYAVLERACRSVLLHAPSEAPQIVRGASDEARKHTYNLTIAWYRMGDNCAIPITVMEYTECPYNKSLGVCPIRTQPRWSYYDSFSAVSEDNLGFLMHAPAFETAGTYLRLVKINDWTEITQFILEHRARASCKYALPLRIPPAACLTSKAYQQGVTVDSIGMLPRFIPENQRTVALYSLKIAGWHGPKPPYTSTLLPPELSDTTNATQPELVPEDPEDGPGPGIAFWVRRRAQMAPKPLRIAFWVRRRAQMAPKPLRHHHHHH
modifications: left off: small tags and cut ends
B2: gD1-275v5-55: gD1-275 with glycochains at SC-A, SC-F, linked to T cell epitope peptide DP5 (protein)
chain: B1 chain with R186N
modifications: left off: small tags and cut ends
B3: gD1-315v5: gD1-315 with glycochains at R186 (SC-A) and P50 (SC-F) (protein)
chain: KYALADPSLKMADPNRFRGKNLPVLDQLTDPPGVKRVYHIQPSLEDPFQNASIPITVYYAVLERACRSVLLHAPSEAPQIVRGASDEARKHTYNLTIAWYRMGDNCAIPITVMEYTECPYNKSLGVCPIRTQPRWSYYDSFSAVSEDNLGFLMHAPAFETAGTYLRLVKINDWTEITQFILEHRANASCKYALPLRIPPAACLTSKAYQQGVTVDSIGMLPRFIPENQRTVALYSLKIAGWHGPKPPYTSTLLPPELSDTTNATQPELVPEDPEDSALLEDPAGTVSSQIPPNWHIPSIQDVAPHHAPAAPSNPGHHHHHH

What was measured:
[1] = system: various anti-gD2 antibodies; assay: Reactivity of gD variants with anti-gD2 antibodies (competitive ELISA); format: binding, human; conditions: for Reactivity with anti-gD2 antibody 1 / Reactivity with anti-gD2 antibody 5 / Reactivity with anti-gD2 antibody 13 / Reactivity with anti-gD2 antibody 72 / Reactivity with anti-gD2 antibody 75 / Reactivity with anti-gD2 antibody 78 / Reactivity with anti-gD2 antibody 82: immobilized gD variant
Text: Each anti-gD2 monoclonal antibody and each gD variant were expressed using an Expi293 expression system.

[2] = target: T1, HVEM; assay: Reactivity of HVEM with gD variants (competitive ELISA); format: binding; conditions: compared to the original gD1-315; FIG. 14
Procedure: From the above discussion, it can be strongly inferred that each variant takes the structure in which FR1 is bound to the receptor binding region. The reactivity of HVEM with each variant was then measured by competitive ELISA.
HVEM can bind gD for the first time when FR1 binds to the receptor binding region and takes a characteristic hairpin structure. […] FR3-deficient gD1-275v5-55 promoted FR1 binding and further HVEM binding over other gD1-315-based variants in which FR3 was present.

[3] = system: HSV-2 MS strain; assay: Mouse infection-prevention test of modified gD (genital herpes infection model); format: in vivo, BALB/c mice; design: key to Determination (vs gD1-315) / Determination# (vs gD1-315): ++: minimum effective dose based on the Significant difference test in three-fold common ratio relative to gD1-315(WT) of two or more doses stronger; +: those of one dose stronger; ±: those of an equivalent value; conditions: for Determination# (vs gD1-315) / Determination (vs gD1-315): minimum effective dose relative to gD1-315(WT)
Procedure: Immunogenicity test of the modified gD antigen was performed using the wild-type gD antigen gD1-315 (WT) as a positive control and saline as a negative control. A predetermined amount of antigen was dissolved in saline for injection (saline) with MPLA (10 μg/mouse) and CpG (1 μg/mouse) and immunized to mice at a volume of 200 μL/mouse. BALB/c mice (5 weeks old, female) were used for the study and immunized subcutaneously in back at 2-week intervals for a total of 3 times (N=4 cases per group). Two weeks after the final immunization (third dose), blood was collected and serum was prepared for each individual. The prepared serum was serially diluted and assessed for neutralizing antibody-inducing activity against HSV-2 (50% plaque number-reducing activity).
An infection-prevention test in the preventive administration of modified gD antigen was performed using a mouse genital herpes infection model. Similar to the mouse immunogenicity test described above, mice were immunized with the number of N=10 cases per group. Depo-Provera was inoculated subcutaneously at 2 mg/mouse 6 days prior to viral inoculation to improve the multiplicity of infection upon viral inoculation 2 weeks after final immunization (third dose). 5×10^5 PFU/20 μL HSV-2 MS strain was inoculated transvaginally under anesthesia and observed for 21 days. Infection prevention ability was evaluated using survival time (survival rate) as index.
The infection model of the mouse genital herpes infection model was used to evaluate infection prevention ability of various modified gD in preventive administration. The number of animal cases in each group was set to n=10, and wild-type gD (gD1-315) was used as a positive control and saline was used as a negative control. The experiments were performed a total of four times (experiments 1-4) and four doses of 0.1 μg/mouse/time, 0.03 μg/mouse/time, 0.01 μg/mouse/time and 0.003 μg/mouse/time were set for all of the positive control, negative control, and subject modified gD antigen. Depo-Provera was inoculated subcutaneously at 2 mg/mouse 6 days prior to viral inoculation to improve the multiplicity of infection upon viral inoculation 2 weeks after final immunization (third dose). 5×10^5 PFU/20 HSV-2 MS strain was inoculated transvaginally under anesthesia and observed for 21 days. Infection prevention ability was evaluated using survival time (survival rate) as index. Mean values of those were plotted in the graph. A Significant difference test for the negative control group was performed by the Kaplan-Meier method, and those with a minimum effective dose based on the Significant difference test in three-fold common ratio relative to wild type gD of two or more doses stronger were determined to be “++”, those of one dose stronger were determined to be “+”, and those of an equivalent value were determined to be “±”.

[4] = Properties of produced gD variants (aggregates); format: physicochemical; conditions: expressed and purified variant
Text: Four gD1-275-based variants were produced. Since these were FR3-deficient variants, V231W mutations affecting FR3 were not investigated. […] Meanwhile, eight gD1-315-based variants were produced, and none of the variants were less than the original gD1-315 in both properties and expression level.

[5] = Experiment 1, 0.003 μg/head/time
[6] = Experiment 1, 0.01 μg/head/time
[7] = Experiment 1, 0.03 μg/head/time
[8] = Experiment 2, 0.003 μg/head/time
[9] = Experiment 2, 0.01 μg/head/time
[10] = Experiment 2, 0.03 μg/head/time
[11] = Experiment 3, 0.003 μg/head/time
[12] = Experiment 3, 0.01 μg/head/time
[13] = Experiment 3, 0.03 μg/head/time
[14] = Experiment 4, 0.003 μg/head/time
[15] = Experiment 4, 0.01 μg/head/time
[16] = Experiment 4, 0.03 μg/head/time

| Molecule | Reactivity with anti-gD2 antibody 1 [1] | Reactivity with anti-gD2 antibody 5 [1] | Reactivity with anti-gD2 antibody 13 [1] | Reactivity with anti-gD2 antibody 72 [1] | Reactivity with anti-gD2 antibody 75 [1] | Reactivity with anti-gD2 antibody 78 [1] | Reactivity with anti-gD2 antibody 82 [1] | Mean survival time [3, 5] [days] | Significant difference test (vs saline) [3, 5] | Mean survival time [3, 6] [days] | Significant difference test (vs saline) [3, 6] | Mean survival time [3, 7] [days] | Significant difference test (vs saline) [3, 7] | Mean survival time ([3]; Experiment 1, 0.1 μg/head/time) [days] | Significant difference test (vs saline) ([3]; Experiment 1, 0.1 μg/head/time) | Mean survival time [3, 14] [days] | Significant difference test (vs saline) [3, 14] | Mean survival time [3, 15] [days] | Significant difference test (vs saline) [3, 15] | Mean survival time [3, 16] [days] | also measured |
| --- | --- | --- | --- | --- | --- | --- | --- | --- | --- | --- | --- | --- | --- | --- | --- | --- | --- | --- | --- | --- | --- |
| gD1-315: wild-type soluble gD ectodomain 1-315 of HSV-2 333 strain, SEQ ID NO: 1; positive control [reference compound] | + ((+): 70% or more) | + ((+): 70% or more) | + ((+): 70% or more) | + ((+): 70% or more) | + ((+): 70% or more) | + ((+): 70% or more) | + ((+): 70% or more) | 6.5 | N.S. | 7 | N.S. | >21 | *** (*** p < 0.001) | >21 | *** (*** p < 0.001) | 8 | N.S. | 7.5 | N.S. | >16.5 | Reactivity with HVEM [2]: little reaction; Mean survival time [3, 8]: 7.5 days; Significant difference test (vs saline) [3, 8]: N.S.; Mean survival time [3, 9]: 7.5 days; Significant difference test (vs saline) [3, 9]: N.S.; Mean survival time [3, 10]: >14.5 days; Significant difference test (vs saline) [3, 10]: N.S.; Mean survival time ([3]; Experiment 2, 0.1 μg/head/time): >22 days; Significant difference test (vs saline) ([3]; Experiment 2, 0.1 μg/head/time): *** (*** p < 0.001); Mean survival time [3, 11]: 6 days; Significant difference test (vs saline) [3, 11]: N.S.; Mean survival time [3, 12]: 8 days; Significant difference test (vs saline) [3, 12]: * (* 0.01 = < p < 0.05); Mean survival time [3, 13]: >21 days; Significant difference test (vs saline) [3, 13]: *** (*** p < 0.001); Mean survival time ([3]; Experiment 3, 0.1 μg/head/time): >21 days; Significant difference test (vs saline) ([3]; Experiment 3, 0.1 μg/head/time): *** (*** p < 0.001); Significant difference test (vs saline) [3, 16]: N.S.; Mean survival time ([3]; Experiment 4, 0.1 μg/head/time): >21 days; Significant difference test (vs saline) ([3]; Experiment 4, 0.1 μg/head/time): *** (*** p < 0.001) |
| B1 | − ((−): less than 30%) | − ((−): less than 30%) | − ((−): less than 30%) | − ((−): less than 30%) | − ((−): less than 30%) | − ((−): less than 30%) | + ((+): 70% or more) | – | – | – | – | – | – | – | – | 7 | N.S. | 7.5 | N.S. | >21 | Significant difference test (vs saline) [3, 16]: ** (** 0.001 = < p < 0.01); Mean survival time ([3]; Experiment 4, 0.1 μg/head/time): >21 days; Significant difference test (vs saline) ([3]; Experiment 4, 0.1 μg/head/time): ** (** 0.001 = < p < 0.01); Determination# (vs gD1-315) ([3]; Experiment 4): +; Properties of the variant (aggregates) [4]: presence of aggregates was confirmed |
| B2 | − ((−): less than 30%) | − ((−): less than 30%) | − ((−): less than 30%) | − ((−): less than 30%) | − ((−): less than 30%) | − ((−): less than 30%) | + ((+): 70% or more) | 13 | *** (*** p < 0.001) | 11 | *** (*** p < 0.001) | >21 | *** (*** p < 0.001) | >21 | *** (*** p < 0.001) | 8 | N.S. | 15.5 | N.S. | >21 | Determination (vs gD1-315) ([3]; Experiment 1): ++; Significant difference test (vs saline) [3, 16]: ** (** 0.001 = < p < 0.01); Mean survival time ([3]; Experiment 4, 0.1 μg/head/time): >21 days; Significant difference test (vs saline) ([3]; Experiment 4, 0.1 μg/head/time): *** (*** p < 0.001); Determination# (vs gD1-315) ([3]; Experiment 4): +; Properties of the variant (aggregates) [4]: well properties |
| B3 | + ((+): 70% or more) | − ((−): less than 30%) | + ((+): 70% or more) | ± ((±): 30% or more and less than 70%) | − ((−): less than 30%) | − ((−): less than 30%) | + ((+): 70% or more) | 6.5 | N.S. | >21 | *** (*** p < 0.001) | >21 | *** (*** p < 0.001) | >21 | *** (*** p < 0.001) | – | – | – | – | – | Relative reactivity with antibody No. 82 (gD1-315 wild-type set to 1) ([1]; FIG. 13): substantially similar reactivity; Reactivity with HVEM [2]: little reaction; Determination (vs gD1-315) ([3]; Experiment 1): + |
